# Target: HLA-DR1 (HLA-DRA*0101, HLA-DRB1*0101) (human)
# Assay: ELISA
substance,measurement,value
influenza A virus hemagglutinin (HA) peptide HA305-319,IC50,29 nM

# — article PMC10840515
